{"source": "patent US20090149377", "about": "“METHODS FOR REGULATION OF p53 TRANSLATION AND FUNCTION” (ST. JUDE CHILDREN'S RESEARCH HOSPITAL, published 2009)", "molecular_target": "RPL26 (Homo sapiens, UniProt P61254 SEQ:1-145)", "test": "EMSA; supershift with anti-penta His; 1.5 mM Mg acetate, 90 mM K acetate, 30 C", "data": [{"binder": "p53 5'UTR (-191 to 2) (ssRNA) RNA: GGUUUUCCCCUCCCAUGUGCUCAAGACUGGCGCUAAAAGUUUUGAGCUUCUCAAAAGUCUAGAGCCACCGUCCAGGGAGCAGGUAGCUGCUGGGCUCCGGGGACACUUUGCGUUCGGGCUGGGAGCGUGCUUUCCACGACGGUGACACGCUUCCCUGGAUUGGCAGCCAGACUGCCUUCCGGGUCACUGCCAU", "values": [{"measurement": "binding result", "result": "binds"}]}]}
